Test results from publication PMC11210195.

Legend:
[1] = molecular target: mAb1 YTE (human IgG1, M252Y, S254T, T256E) (human); experiment: SPR; Biacore T200, C1 chip, 25 °C, HBS-EP+ (10 mM HEPES, 150 mM NaCl, 3 mM EDTA, 0.05% P20, pH 7.4); antibody Fc variants captured via anti-human Fab-kappa nanobody (about 60 RU), Fc only variants amine-coupled (60-80 RU), cytokine-Fc fusions captured via anti-PGLALA F(ab')2 (35-40 RU); PRYSPRY domain injected in five two-fold dilutions from 500, 1000 or 2000 nM; global fit, Langmuir 1:1, affinity mode
Briakinumab (human) = experiment: as above
mAb1 WT-AAA (human) [2] = experiment: mass photometry; 200 nM mAb1 Fc variant pre-incubated with 4000 nM PRYSPRY domain, analysed at a 1:250 dilution; PBS pH 7.4, room temperature
mAb1 YTE (human) = experiment: SPR; antibody Fc variants captured via CaptureSelect Human Fab-kappa ligand on a C1 chip (approx. 60 RU); PRYSPRY injected, five concentrations, two-fold series; 25°C, HBS-EP+ pH 7.4; 1:1 Langmuir fit
mAb1 HH (human) = experiment: as above
mAb1 WT-AAA (human) [3] = experiment: as above

Sequence of Briakinumab (human) (heavy, as listed by the source, chain 1 of 2): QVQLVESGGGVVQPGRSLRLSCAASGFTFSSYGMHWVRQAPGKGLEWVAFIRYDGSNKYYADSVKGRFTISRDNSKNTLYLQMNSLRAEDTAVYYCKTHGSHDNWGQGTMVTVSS
Sequence of Briakinumab (human) (light, as listed by the source, chain 2 of 2): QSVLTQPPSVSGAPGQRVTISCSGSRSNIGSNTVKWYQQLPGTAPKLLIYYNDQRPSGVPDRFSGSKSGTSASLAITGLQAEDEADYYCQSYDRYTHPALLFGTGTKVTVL
Sequence of TRIM21 PRYSPRY domain (P19474 277-475): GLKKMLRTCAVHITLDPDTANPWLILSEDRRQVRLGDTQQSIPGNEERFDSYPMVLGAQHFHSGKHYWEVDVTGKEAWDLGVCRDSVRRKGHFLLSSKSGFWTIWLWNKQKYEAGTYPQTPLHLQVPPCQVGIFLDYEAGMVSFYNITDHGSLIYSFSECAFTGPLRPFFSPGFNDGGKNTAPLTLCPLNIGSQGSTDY

Kd [1]: 74.8 nM
koff [1]: 0.16 s⁻¹
kon [1]: 2.14e+06 M⁻¹ s⁻¹
Kd (Briakinumab (human)): 52.3 nM
koff (Briakinumab (human)): 0.115 s⁻¹
kon (Briakinumab (human)): 2.2e+06 M⁻¹ s⁻¹
stoichiometry N (mAb1 WT-AAA (human) [2]): 1
fold decrease of affinity against mAb1 Fc WT (mAb1 YTE (human)): 1.7 fold
fold faster off rate against WT (mAb1 YTE (human)): 1.6 fold
fold decrease of affinity against mAb1 Fc WT (mAb1 HH (human)): 2.4 fold
fold faster off rate against WT (mAb1 HH (human)): 5 fold
fold faster on rate against WT (mAb1 HH (human)): 2 fold
Kd (mAb1 WT-AAA (human) [3]): 40 nM
stoichiometry N (mAb1 WT-AAA (human) [3]): 1
Substance: TRIM21 PRYSPRY domain (from UniProt P19474-1 277-475) (domain or fragment)
